Laboratory results reported in patent publication US20050287638A1.

Molecular target: recombinant 190 kDa hHARE expressed in Flp-In 293 cells (human)

- endocytosis of ^125I-HA by 190hHARE Flp-In 293 cell lines at 37° C. (% of the control value): 103
Substance: mouse IgG (polyclonal serum or antibody)
